In US20170306031A1 (NGM BIOPHARMACEUTICALS, published 2017):
Residue numbers refer to the chain shown, from its start.

T1: mouse GFRAL (analyte in Biacore assays) (mouse, UniProt Q6SJE0 20-349, limits assumed)
T1 construct: injected in solution over captured antibody
T1 sequence: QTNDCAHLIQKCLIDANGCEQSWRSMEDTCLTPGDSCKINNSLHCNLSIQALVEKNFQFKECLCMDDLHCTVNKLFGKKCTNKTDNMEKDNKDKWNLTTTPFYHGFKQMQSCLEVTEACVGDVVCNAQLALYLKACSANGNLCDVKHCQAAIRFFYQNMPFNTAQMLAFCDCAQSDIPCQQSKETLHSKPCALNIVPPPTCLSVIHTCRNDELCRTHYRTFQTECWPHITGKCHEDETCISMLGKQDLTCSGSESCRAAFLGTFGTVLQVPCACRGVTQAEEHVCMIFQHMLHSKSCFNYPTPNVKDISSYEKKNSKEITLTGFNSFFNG

T2: human GFRAL (analyte in Biacore assays) (human, UniProt Q6UXV0 19-351, limits assumed)
T2 construct: injected in solution over captured antibody; also called hGFRAL
T2 sequence: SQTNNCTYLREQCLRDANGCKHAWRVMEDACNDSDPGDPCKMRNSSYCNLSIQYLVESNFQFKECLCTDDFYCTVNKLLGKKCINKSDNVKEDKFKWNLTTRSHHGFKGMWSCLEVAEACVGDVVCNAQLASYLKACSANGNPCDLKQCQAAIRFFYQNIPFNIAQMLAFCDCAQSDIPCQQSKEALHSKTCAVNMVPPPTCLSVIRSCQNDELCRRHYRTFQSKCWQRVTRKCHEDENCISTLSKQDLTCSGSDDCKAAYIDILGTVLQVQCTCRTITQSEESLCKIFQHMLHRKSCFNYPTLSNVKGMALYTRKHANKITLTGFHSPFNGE

T3: mouse GFRAL expressed on cells (mouse, UniProt Q6SJE0 20-393)
T3 sequence: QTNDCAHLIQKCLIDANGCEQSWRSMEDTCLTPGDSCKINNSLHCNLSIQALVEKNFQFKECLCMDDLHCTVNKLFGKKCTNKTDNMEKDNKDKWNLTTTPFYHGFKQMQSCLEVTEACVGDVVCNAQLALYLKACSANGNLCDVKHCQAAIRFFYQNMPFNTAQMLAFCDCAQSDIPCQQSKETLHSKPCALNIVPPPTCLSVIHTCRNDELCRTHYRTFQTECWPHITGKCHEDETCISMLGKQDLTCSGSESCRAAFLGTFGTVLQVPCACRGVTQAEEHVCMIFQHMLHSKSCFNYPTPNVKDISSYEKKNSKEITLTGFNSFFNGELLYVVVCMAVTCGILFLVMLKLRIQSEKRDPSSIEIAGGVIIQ

T4: human GFRAL expressed on cells (human, UniProt Q6UXV0 20-394)
T4 sequence: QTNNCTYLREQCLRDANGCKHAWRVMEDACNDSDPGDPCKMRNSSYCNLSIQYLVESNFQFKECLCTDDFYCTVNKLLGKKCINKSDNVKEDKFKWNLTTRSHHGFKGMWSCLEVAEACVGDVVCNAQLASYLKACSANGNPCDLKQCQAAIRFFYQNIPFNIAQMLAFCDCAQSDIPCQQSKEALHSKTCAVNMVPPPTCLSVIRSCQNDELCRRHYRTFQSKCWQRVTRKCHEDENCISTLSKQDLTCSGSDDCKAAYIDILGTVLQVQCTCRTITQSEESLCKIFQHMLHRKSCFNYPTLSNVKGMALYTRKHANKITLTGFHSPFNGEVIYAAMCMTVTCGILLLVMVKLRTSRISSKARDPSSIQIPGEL

B1: antibody designated 2B8 (antibody, V domains shown)
VH: QIQLVQSGPELKKPGETVKISCKASGYTFTTYGMSWVKQAPGKIFKWMGWINTYSGVPTFVDDFRGRFAFSLETSASTAYLQIGNLKNEDTATYFCARRSSYYPYWYFDVWGTGTTVTVSS
VL: DIQMTQSPASLSASVGETVTITCRPSENIYSYLTWFQQEQGKSPQLLVYNAQTLAEGVPSRFSGSGSGTHFSLKINSLQPEDFGTYYCQHYYGYPFTFGSGTKLEIK
notes: mouse hybridoma monoclonal
B2: antibody designated 1B3 (antibody, V domains shown)
VH: QVHLQQPGAELVKPGASVKLSCKASGFTFTGYNINWVRLRPEQGLEWIGWIFPGDDNAKYNEKFKGKATLTTDKSSNTAYMQLSRLTSEDSAVYFCARTPVLSNYFDYWGQGTTLTVSS
VL: DIQMTQSPSSLSASLGGKVTITCKASQDISKYISWYQHKPGKSPRLLIHYTSTLQPGIPSRFSGSGSGRDYSFSISNLEPEDIATYYCLQYDNLYTFGGGTKLEIK
notes: mouse hybridoma monoclonal
B3: antibody designated 6G9 (antibody, V domains shown)
VH: QVQLHQPGAELVKPGASVKLSCKTSGYTFTSYWMQWVKQRPGQGLEWIGEIDPSDSYTNYNQKFKGKATLTVDTSSTTAYMQLSSLTSEDSAVYYCARPLDRSAYYFDYWGQGTTLTVSS
VL: DIVLTQSPASLAVSLGQRATISCRASESVDFSGNSFMHWYQQKPGQPPKLLIYRASNLDSGIPARFSGVGSRTDFTLTINPVEADDVATYYCQQSNEDPYTFGGGTKLEIE
notes: mouse hybridoma monoclonal
B4: antibody designated 12A3 (antibody, V domains shown)
VH: QIQLVQSGPELKKPGETVKISCKASGYPFTIYGMNWVEQAPGKGLKWMGWINTYSGVPTYADDFKGRFAFSLETSASTAYLQINNLKDEDTATYFCASATGNYWGQGTTLTVSS
VL: DIQMTQSPSSLSASLGERVSLTCRASQDIGSSLNWLQQEPDGTIKRLIYATSSLDSGVPKRFSGSRSGSDYSLTISSLESEDFVDYYCLQYASSPYTFGGGTKVEIK
notes: mouse hybridoma monoclonal
B5: antibody designated 25M22 (antibody, V domains shown)
VH: QVQLQQSGPDLVKPGASVKISCKASGYTFTSYWVNWMKQRPGKGLEWIGRIYPGDGDTNYNGKFKGKATLTADKSSSTAYMQLSSLTSEDSAVYFCARAYLLRLRRTGYYAMDYWGQGTSVTVSS
VL: DVVLTQTPLSLPVNIGDQASISCKSTKSLLNSDEFTYLDWYLQKPGQSPQLLIFLVSNRFSGVPDRFSGSGSGTDFTLKISRVEAEDLGVYYCFQSNYLPYTFGGGTKLEIK
notes: mouse hybridoma monoclonal
B6: antibody designated 19K19 (antibody, V domains shown)
VH: B5 VH with T28A, V34M, M37V
VL: B5 VL with F54Y
notes: mouse hybridoma monoclonal
B7: antibody designated 2B11 (antibody, V domains shown)
VH: DVQLQESGPGLVKPSQSLSLTCSVTGYSITSGYYWNWIRQFPGNKLEWMGHIANDGSNYYNPFLKHRVSITRDTSKNQFFLKLNSVTIQDTATYYCARGGSYFDYVDYWGQGTTLTVSS
VL: DIQMTQTTSSLSASLGDRVTINCRASQDISNYLNWYQQKPDGTVKLLIYYTSRLHSGVPSRFSGSGSGTDYSLTITNLEQEDIATYFCQQGNTLPFTFGSGTKLEIK
notes: mouse hybridoma monoclonal
B8: antibody designated 2B3 (antibody, V domains shown)
VH: EVKLVESGGGLVQPGGSLKLSCAASGFTFSDYFMFWVRQTPEKRLEWVAYISNDGDSTYYPDTVQGRFTISRDNAKNTLYLQMSRLRSEDTAMYYCTRQGAQATLDYWGQGTTLTVSS
VL: QIVLTQSPAIMSASLGEEITLTCSASSSVFYMHWYQQKSGTSPKLLIYSTSNLASGIPSRFSGSGSGTFYSLTISSVEAEDAADYYCHQWSSTFGGGTKLEIK
B9: humanized anti-GFRAL antibody HC-375g/LC-375a (antibody, IgG1, V domains shown)
VH: QVQLVQSGAEVKKPGSSVKVSCKASGYTFTDYYINWVRQAPGQGLEWIARIYPGNGNTYHNEKFKGRATLTADKSTSTAYMELSSLRSEDTAVYYCAREGLYYDYDRYFDYWGQGTLVTVSS
VL: DIVMTQSPDSLAVSLGERATINCRASESVDTYGNSFMHWYQQKPGQPPKLLIYLASNLESGVPDRFSGSGSGTDFTLTISSLQAEDVAVYYCHQNNEDPPAFGGGTKVEIK
notes: humanized 5F12
B10: humanized anti-GFRAL antibody HC-375g/LC-375j (antibody, IgG1, V domains shown)
VH: B9 VH
VL: DIVLTQSPLSLPVTLGQPASISCRASESVDTYGNSFMHWYQQRPGQSPRLLIYLASNLESGVPDRFSGSGSRTDFTLKISRVEAEDVGVYYCHQNNEDPPAFGGGTKVEIK
notes: humanized 5F12

Each binder was assayed against T1, mouse GFRAL (analyte in Biacore assays) (assay: Biacore SPR, antibody captured, GFRAL injected).
Method: (§1) In addition, the binding affinity of antibodies to human and mouse GFRAL were measured. For example, antibodies were rank ordered based on their binding affinity to human GFRAL and mouse GFRAL by low resolution KD measurement by Biacore. Briefly, an anti-mouse Fc antibody (Sigma-Aldrich, St. Louis, Mo.) was immobilized on all four flow cells of a CM5 chip using amine coupling reagents (GE Healthcare LifeSciences, Piscataway, N.J.). Purified antibodies were captured (˜100 RUs) on flow cells 2, 3 and 4 using flow cell 1 as a reference. This was followed by injection of human or mouse GFRAL (25 nM in PBS-P buffer) at a flow rate of 70 μL/m in and monitoring the binding kinetics at 25° C.
(§2) Binding affinity measurements were also made in additional Biacore based assays. For example, equilibrium dissociation constant (KD) measurements were carried out with purified antibodies to evaluate their binding to human GFRAL or mouse GFRAL. As mentioned above, anti-mouse Fc antibody (Sigma-Aldrich, St. Louis, Mo.) was immobilized on all four flow cells of a CM5 chip using amine coupling reagents (GE Healthcare LifeSciences, Piscataway, N.J.). Purified antibodies were captured (˜100 RUs) on flow cells 2, 3 and 4 using flow cell 1 as a reference. This was followed by injection of human or mouse GFRAL in PBS-P buffer) at a flow rate of 70 μL/min and the binding kinetics were evaluated at 25° C.

| Kd [nM] | koff [s⁻¹] | binding result | Binder |
| --- | --- | --- | --- |
| 3.76 | 0.013 |  | B1 |
| 4.4 | 0.00107 |  | B2 |
|  |  | no binding | B3 |
| 5.7 | 0.00216 |  | B4 |
| 4.2 | 0.0001 |  | B5 |
| 4.7 | 0.0034 |  | B6 |
| 3.7 | 0.00144 |  | B7 |

What follows are binders tested against T2, human GFRAL (analyte in Biacore assays) (assay: Biacore SPR, antibody captured, GFRAL injected).
Method: as §1, §2

| Kd [nM] | koff [s⁻¹] | Binder |
| --- | --- | --- |
| 0.73 |  | B1 |
| < 0.1 |  | B2 |
| < 0.1 |  | B3 |
| < 0.1 | ~1e-05 | B4 |
| < 0.1 | ~1e-05 | B5 |
| 0.21 | 0.000135 | B6 |
| 0.1 | 8.45e-05 | B7 |

Each binder was assayed against T3, mouse GFRAL expressed on cells (assay: cell-based or functional assay).

| IC50, ELK1-luciferase reporter (mGFRAL/mRET) [nM] | Binder |
| --- | --- |
| 2.45 | B1 |
| 7.76 | B8 |
| 0.933 | B4 |
| 1.11 | B5 |
| 0.895 | B6 |

The binders below were run against T4, human GFRAL expressed on cells (assay: cell-based or functional assay).

| IC50, ELK1-luciferase reporter (hGFRAL/hRET) [nM] | Binder |
| --- | --- |
| 1.92 | B1 |
| 7.12 | B8 |
| 4.14 | B2 |
| 2.65 | B3 |
| 4.99 | B4 |
| 2.89 | B5 |
| 3.88 | B6 |
| 7.9 | B7 |

Target: T4, human GFRAL expressed on cells
Assay: cell-based or functional assay
Remark: another data set of the same source

| IC50, ERK phosphorylation in U2OS hGFRAL/hRET cells [nM] | Binder |
| --- | --- |
| 0.22 | B1 |
| 1.48 | B8 |
| 0.57 | B2 |
| 0.17 | B3 |
| 0.54 | B4 |
| 0.53 | B5 |
| 0.61 | B6 |
| 0.46 | B7 |

The binders below were run against T2, human GFRAL (analyte in Biacore assays) (assay: Biacore SPR, antibody captured, human GFRAL injected).
Method: Exemplary humanized anti-GFRAL antibodies identified in Example 6 were assayed for their binding affinity to human GFRAL. Binding affinity measurements were made in Biacore based assays. For example, equilibrium dissociation constant (KD) measurements were carried out with purified antibodies to evaluate their binding to human GFRAL. Using methods described in Example II, anti-mouse Fc antibody (Sigma-Aldrich, St. Louis, Mo.) was immobilized on all four flow cells of a CM5 chip using amine coupling reagents (GE Healthcare LifeSciences, Piscataway, N.J.). Purified humanized anti-GFRAL antibodies were captured (˜100 RUs) on flow cells 2, 3 and 4 using flow cell 1 as a reference. This was followed by injection of human GFRAL in PBS-P buffer) at a flow rate of 70 μL/min and the binding kinetics were evaluated at 25° C.

| Kd [nM] | Binder |
| --- | --- |
| 0.028 | B9 |
| 0.057 | B10 |
